B1: wild type Vif SOCS-box protein (domain or fragment)
chain: not shown
notes: source: E. coli BL21(DE3), purified (Ni-NTA, Superdex 75)
B2: ΔPPL Vif SOCS-box protein (domain or fragment)
chain: HNKVGSLQYLALAALITPKKIKAAAPSVTKLTEDRWNK
notes: as for B1

How the values were obtained:
Details in all cases: both partners purified
[1] = target: T1, EloBC (elongin B - elongin C heterodimer) (UniProt Q15370 1-118; Q15369 16-111); assay: SEC
T1 construct: also called EloB-EloC heterodimer; full length EloBC
T1 sequence (Q15370 whole entry, chain 1 of 2): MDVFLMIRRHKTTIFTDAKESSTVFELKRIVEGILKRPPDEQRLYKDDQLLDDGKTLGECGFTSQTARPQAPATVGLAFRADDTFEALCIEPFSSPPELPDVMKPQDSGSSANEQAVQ
T1 sequence (Q15369 16-111, chain 2 of 2): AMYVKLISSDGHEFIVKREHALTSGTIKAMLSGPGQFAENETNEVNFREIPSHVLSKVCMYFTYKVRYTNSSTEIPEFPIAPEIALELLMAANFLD

[2] = target: T1, EloBC (elongin B - elongin C …); assay: NMR titration
[3] = target: T1, EloBC (elongin B - elongin C …); assay: ITC

| Binder | stoichiometry N [1] | KD fitted to the peak of EloB Asp-101 [2] [nM] | KD fitted to the peak of EloB Lys-104 [2] [nM] | KD fitted to the peak of EloB Met-103 [2] [nM] | KD fitted to the peak of EloB Val-102 [2] [nM] | Kd [3] [nM] |
| --- | --- | --- | --- | --- | --- | --- |
| B1 | 1 | 1710 | 3560 | 1730 | 430 | 1200 |
| B2 | – | – | – | – | – | 1250 |
